Assay results as given in patent US20170029844A1.

Biological target: Spodoptera frugiperda ABCc2 transporter (Spodoptera frugiperda)
Assay: cell-based or functional assay

Substance: TIC105 toxin (wild type, unmodified)
- relative fluorescence of SYTOX Green, Sf9 cells expressing the SfABCc2 transporter (relative fluorescence): 57200
